From patent US20160304573A1, “FIBROMODULIN PEPTIDE” (The Regents of the University of California, priority 2010, published 2016)

How the values were obtained:
Rat-2 cells [1] = test: H&E morphology of Rat-2 cells; format: cell-based
Method: Exemplary tests were performed to better delineate cell morphology.

TGF-β2 = biological target: T1, TGF-β2 (Homo sapiens, UniProt P61812); test: TGF-β2 binding to biotinylated FMOD/FMOD peptides on avidin resin; non-bound TGF-β read by Mv1Lu growth inhibition (MTT); conditions: ratios 1:1, 10:1, 100:1, 1000:1 to TGF-β; FIG. 14
T1 sequence (P61812 303-414 limits assumed): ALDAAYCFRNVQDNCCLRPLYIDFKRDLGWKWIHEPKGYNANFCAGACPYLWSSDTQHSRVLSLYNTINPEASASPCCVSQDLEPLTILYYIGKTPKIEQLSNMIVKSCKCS
Method: (§1) FMOD (whole protein) (SEQ ID NO:1), FMOD peptides and control protein BSA were biotinylated. While, the biotinylated proteins and peptides were bound to commercial available Piece Monomeric Avidin UltraLink Resin (Piece). The amounts of each test peptides/proteins are 1:1, 10:1, 100:1 and 1000:1 to TGF-βs, respectively. After washing out the non-bound residues, appropriate amount TGF-βs (based on the primary test assay) were added to the resin at 4° C. After overnight binding, non-bound TGF-βs were collected, followed by filter sterilization. Then, the TGF-βs residue were diluted 100 times in DEME-0.5% FBS to ensure the concentration was located in the linear region of TGF-βs on Mv1Lu proliferate inhibition.
(§2) Diluted TGF-βs was added to overnight serum-starved Mv1Lu, and fresh TGF-βs media were added for another 24 hour before MTT assay. Samples with no TGF-βs added were employed as controls.

Rat-2 cells [2] = test: Rat-2 cell migration/invasion in Matrigel, DAPI nuclear staining; format: cell-based
Method: Cell migration/invasion in Matrigel was documented at 200× magnificent after 24 hour treatment and quantitated using DAPI nuclear staining (results shown in FIG. 19A and repeat results in FIGS. 26B and 26C; DAPI pictures are shown in FIG. 19D).
(§3) Similar to FMOD (whole protein), the effect of FMOD peptides and/or TGF-β on cell migration was also evaluated by scratching method (FIGS. 18C and 25D). At the same time, cell migration/invasion in Matrigel was documented at 100× magnificent after 24 hour treatment and quantitated using DAPI nuclear staining (100 rather than 200× magnification was used because one group's invasion is quite low) (see the results in FIG. 20A and DAPI pictures in FIG. 20B). Passage 18 Rat-2 cells (20,000 cells/well) were used for the test under the treatment of 100 pM TGF-β1 (SEQ ID NO:64)/133 (SEQ ID NO:66) with/without 200 nM FMOD-F07-40C in DMEM-0.5% FBS.
Passage 18 Rat-2 cells (20,000 cells/well) were used for the test under the treatment of 100 pM TGF-β1/β3 with/without 200 nM FMOD-F06-40C in DMEM-0.5% FBS (FIG. 20C).

TGF-β1 [3] = biological target: T2, TGF-β1 (Homo sapiens, UniProt P01137); test: ELISA analysis of binding with TGF-β1; conditions: BSA as negative control; FIG. 3
Source text: Bovine serum albumin (BSA) was used as negative control.
SUMO-CAT from the recombinant bacteria harboring control plasmid pET_SUMO/CAT was used as negative control. To the knowledge of inventors, the TGF-binding sites within FMOD have not been reported.

Rat-2 fibroblasts = test: Z-axes series sequential images, relative height of nodules; format: cell-based; conditions: FMOD and TGF-β1 treatment
Source text: But for the nodules formed with FMOD and TGF-β1 treatment (yellow arrows), the cells were stacked on top of one another to a height of about 48 μm.

[4] = system: Rat-2 (rat fibroblast cell line) cells; test: Rat-2 cell proliferation, Click-iT Microplate Assay; format: cell-based; conditions: FMOD combined with 100 pM TGF-β1, 48 hours; FIG. 16
Method: 2000 cell/well passage 18 Rat-2 (rat fibroblast cell line) cells were seeded in 96-well plates with 200 μl DMEM-10% FBS for 6 hours, followed by overnight serum starving with 200 μl DMEM-0.5% FBS. 200 μl treatment medium, DMEM-0.5% FBS harboring different concentration of FMOD (SEQ ID NO:1), FMOD-F07-C40 peptide with/without 100 pM TGF-βI (SEQ ID NO:64), was added to the well and refreshed on the second day. After 48 hours treatment, proliferation of Rat-2 cells was evaluated by Click-iT® Microplate Assay (Invitrogen).

TGF-β1 [5] = biological target: T2, TGF-β1; test: TGF-β1 binding to biotinylated FMOD/FMOD peptides on avidin resin; non-bound TGF-β read by Mv1Lu growth inhibition (MTT); conditions: ratios 1:1, 10:1, 100:1, 1000:1 to TGF-β; overnight 4° C.; FIG. 13
Method: as §1, §2

Rat-2 cells [6] = test: Rat-2 cell migration by scratching method; format: cell-based
Method: 1×10^6 cell/well Rat-2 cells were seeded in 6-well plated with 3 ml DMEM-10% FBS. After 6 hours for adhesion, fresh DMEM-0.5% FBS medium was changed for serum-starving overnight. After pre-warmed DMEM rinsing, four wounds (each 1 mm wide; two horizontal and two vertical) were scratched employing a 1-ml tip for each treatment group. Cells were rinsed by DMEM for three times, followed by incubation with treatment medium [DMEM-0.5 FBS containing 100 pM (2.5 ng/ml) TGF-β1 (SEQ ID NO:64) or -β3 (SEQ ID NO:66) w/o 200 nM (11.2 μg/ml) FMOD (SEQ ID NO:1)] for 24 hours. Photos were captured at both 0-h and 24-h after the scratching. The unclosed distance was measured and quantified as an average gap (A) and migration index (B). Similar results were reproduced in four independent experiments. The scale bar in (A) equal to 100 The asterisks in (B) present P<0.05.
as §3

[7] = 100 pM TGF-β1 and 200 nM FMOD combined treatment

T2 sequence (P01137 279-390 limits assumed): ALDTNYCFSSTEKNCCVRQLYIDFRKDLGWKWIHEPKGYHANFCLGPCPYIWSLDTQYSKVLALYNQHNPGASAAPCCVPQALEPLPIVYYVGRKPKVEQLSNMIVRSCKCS

B1: FMOD: recombinant human fibromodulin whole protein (SEQ ID NO:1) produced in CHO-K1 (protein, listed as Homo sapiens)
chain: MQWTSLLLLAGLFSLSQAQYEDDPHWWFHYLRSQQSTYYDPYDPYPYETYEPYPYGVDEGPAYTYGSPSPPDPRDCPQECDCPPNFPTAMYCDNRNLKYLPFVPSRMKYVYFQNNQITSIQEGVFDNATGLLWIALHGNQITSDKVGRKVFSKLRHLERLYLDHNNLTRMPGPLPRSLRELHLDHNQISRVPNNALEGLENLTALYLQHNEIQEVGSSMRGLRSLILLDLSYNHLRKVPDGLPSALEQLYMEHNNVYTVPDSYFRGAPKLLYVRLSHNSLTNNGLASNTFNSSSLLELDLSYNQLQKIPPVNTNLENLYLQGNRINEFSISSFCTVVDVVNFSKLQVLRLDGNEIKRSAMPADAPLCLRLASLIEI
cell density (H&E) (Rat-2 cells [1]; [7]): significantly increased cell density
nodule size (Rat-2 cells [1]; [7]): increased nodule size
nodule number (Rat-2 cells [1]; 100 pM TGF-β1 and 200 nM FMOD combined treatment, 8-well chamber slides): about four
cell morphology (H&E) (Rat-2 cells [1]; 200 nM FMOD alone, FIG. 22): flat, spread-out Rat-2 cell morphology
cell aggregation/density (H&E) (Rat-2 cells [1]; mono-treatment (200 nM FMOD or 100 pM TGF-β1), relative to controls): lower cell aggregation/density relative to controls
TGF-β2 binding (TGF-β2): TGF-β2 binding that also expectedly increased with higher FMOD protein ratios
cell migration/invasion in Matrigel (Rat-2 cells [2]; 200 nM combined with 100 pM TGF-β1, 24 hour treatment): induced significant migration
cell migration/invasion in Matrigel (Rat-2 cells [2]; 200 nM combined with 100 pM TGF-β3, 24 hour treatment): decreased TGF-β3 mediated inhibition of migration
cell migration/invasion in Matrigel (Rat-2 cells [2]; alone (200 nM FMOD or peptide, or 100 pM TGF-β), 24 hour treatment): induced Rat-2 moderate migration
binding with TGF-β1 in ELISA assay (TGF-β1 [3]): able to bind with TGF-β1
height of stacked cells in nodules (Rat-2 fibroblasts): about 48 μm
fibroblast proliferation [4]: significantly increased fibroblast proliferation
TGF-β1 binding (TGF-β1 [5]): TGF-β1 binding that also increased with higher FMOD protein ratios
cell migration, scratch (Rat-2 cells [6]; 200 nM combined with 100 pM TGF-β1, 24 hours): induced significant migration
cell migration, scratch (Rat-2 cells [6]; 200 nM combined with 100 pM TGF-β3, 24 hours): decreased TGF-β3 mediated inhibition of migration
cell migration, scratch (Rat-2 cells [6]; alone (200 nM FMOD or 100 pM TGF-β), 24 hours): induced Rat-2 minimal migration
